From patent US20240059799A1 (Pfizer, published 2024)
Substitutions are numbered along the chain they refer to.

T1: recombinant human TL1A (human, UniProt O95150 71-251)
T1 chain: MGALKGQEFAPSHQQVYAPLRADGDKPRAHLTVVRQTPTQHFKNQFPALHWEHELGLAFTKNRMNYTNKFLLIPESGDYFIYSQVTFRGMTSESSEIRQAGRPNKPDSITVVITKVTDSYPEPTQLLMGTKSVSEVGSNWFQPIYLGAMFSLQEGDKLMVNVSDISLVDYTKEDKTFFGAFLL

T2: recombinant human TL1A (human, UniProt O95150 71-251)
T2 construct: homotrimer; biotinylated for SPR capture; the ELISA paragraphs say only 'recombinant TL1A'; also called TNFSF15
T2 chain: T1 chain

B1: TL1A-0262 (antibody, human IgG1, kappa, V domains shown)
VH: QVQLVQSGAEVKKPGASVKVSCKASGYDYTYYGISWVRQAPGQGLEWMGWISTYNTGTHYAQKLQGRVTMTTDTSTSTAYMELRSLRSDDTAVYYCARESYYGSGAFRGGMDVWGQGTTVTVSS
VL: DIQMTQSPSSLSASVGDRVTITCRASQSVSSYLAWYQQKPGKAPKLLIYDASNRATGVPSRFSGSGSGTDFTLTISSLQPEDFATYYCQQRSNWPWTFGQGTKVEIKR
notes: human IgG1 effector-function-minimized/kappa
B2: TL1A-0263 (antibody, human IgG1, kappa, V domains shown)
VH: B1 VH with F107H
VL: B1 VL
notes: as for B1
B3: TL1A-0264 (antibody, human IgG1, kappa, V domains shown)
VH: B1 VH with G57V, Q62P, K63S
VL: B1 VL
notes: as for B1
B4: TL1A-0265 (antibody, human IgG1, kappa, V domains shown)
VH: B1 VH with G57V, Q62P, K63S, F107H
VL: B1 VL
notes: as for B1
B5: TL1A-0267 (antibody, human IgG1, kappa, V domains shown)
VH: B1 VH with G57N, Q62P, K63S, F107H
VL: B1 VL
notes: as for B1
B6: TL1A-0274 (antibody, human IgG1, kappa, V domains shown)
VH: B1 VH with Y29F, T30S, Q62P, K63S
VL: B1 VL
notes: as for B1
B7: TL1A-0275 (antibody, human IgG1, kappa, V domains shown)
VH: B1 VH with Y29F, T30S, Q62P, K63S, F107H
VL: B1 VL
notes: as for B1
B8: TL1A-0278 (antibody, human IgG1, kappa, V domains shown)
VH: B1 VH with Y29F, T30S, G57V, Q62P, K63S
VL: B1 VL
notes: as for B1
B9: TL1A-0280 (antibody, human IgG1, kappa, V domains shown)
VH: B1 VH with Y29F, T30S, G57N, Q62P, K63S
VL: B1 VL
notes: as for B1
B10: TL1A-0285 (antibody, human IgG1, kappa, V domains shown)
VH: B1 VH with Y29F, I34V, T56D, G57N, Q62P, K63S, F107H
VL: B1 VL
notes: as for B1
B11: TL1A-0287 (antibody, human IgG1, kappa, V domains shown)
VH: B1 VH with Y29F, I34V, T56D, G57N, F107H
VL: B1 VL
notes: as for B1
B12: TL1A-0288 (antibody, human IgG1, kappa, V domains shown)
VH: B1 VH with Y29F, I34V, Q62P, K63S
VL: B1 VL
notes: human IgG1 effector-function-minimized/kappa; 96 used
B13: TL1A-0289 (antibody, human IgG1, kappa, V domains shown)
VH: B1 VH with Y29F, I34V, Q62P, K63S, F107H
VL: B1 VL
notes: as for B1
B14: TL1A-0292 (antibody, human IgG1, kappa, V domains shown)
VH: B1 VH with Y29F, I34V, G57V, Q62P, K63S
VL: B1 VL
notes: as for B1
B15: TL1A-0293 (antibody, human IgG1, kappa, V domains shown)
VH: B1 VH with Y29F, I34V, G57V, Q62P, K63S, F107H
VL: B1 VL
notes: as for B1
B16: TL1A-0294 (antibody, human IgG1, kappa, V domains shown)
VH: B1 VH with Y29F, I34V, G57N, Q62P, K63S
VL: B1 VL
notes: as for B1
B17: TL1A-0303 (antibody, human IgG1, kappa, V domains shown)
VH: B1 VH with Y29F, S35G, Q62P, K63S, F107H
VL: B1 VL
notes: as for B1
B18: TL1A-0308 (antibody, human IgG1, kappa, V domains shown)
VH: B1 VH with Y29F, S35G, G57N, Q62P, K63S
VL: B1 VL
notes: as for B1
B19: TL1A-0291 (antibody, human IgG1, kappa, V domains shown)
VH: B1 VH with Y29F, I34V, F107H
VL: B1 VL
notes: as for B1
B20: TL1A-0043 (antibody, human IgG1, kappa, V domains shown)
VH: B1 VH with Y29F, T56G, G57N, Q62R, K63M, S77R, S100N, F107Y
VL: EIVMTQSPATLSLSPGERATLSCRASQSVSSYLAWYQQKPGQAPRLLIYDASNRATGIPARFSGSGSGTDFTLTISSLQPEDFAVYYCQQRSNWPWTFGQGTKVEIKR
notes: IgG1/kappa; VL graft on IGKV3D-7*01
B21: TL1A-0045 (antibody, human IgG1, kappa, V domains shown)
VH: QVQLVQSGAEVKKPGASVKVSCKASGYDFTYYGISWVRQAPGQGLEWMGWISTYNGNTHYARMLQGRVTMTRDTSTSTVYMELSSLRSEDTAVYYCARENYYGSGAYRGGMDVWGQGTTVTVSS
VL: B20 VL with M4L, Q79E
notes: IgG1/kappa; VH graft on IGHV1-46*01
B22: TL1A-0048 (antibody, human IgG1, kappa, V domains shown)
VH: B21 VH with T76I, V79A, S85R, E89D
VL: B20 VL with M4L, Q79E
notes: IgG1/kappa; VH graft on IGHV1-2*02
B23: TL1A-0053 (antibody, human IgG1, kappa, V domains shown)
VH: B21 VH
VL: B20 VL
notes: IgG1/kappa; IGHV1-46*01 / IGKV3D-7*01 grafts
B24: TL1A-0056 (antibody, human IgG1, kappa, V domains shown)
VH: B21 VH with T76I, V79A, S85R, E89D
VL: B20 VL
notes: IgG1/kappa; IGHV1-2*02 / IGKV3D-7*01 grafts
B25: TL1A-0042 (antibody, human IgG1, kappa, V domains shown)
VH: B21 VH with R72T, S77R, V79A, S84R, E89D
VL: B1 VL
notes: TL1A-0002 heavy chain with light chain CDRs grafted on IGKV1-39*01 (DPK9)

How the values were obtained:
recombinant human TL1A [1] = molecular target: T1, recombinant human TL1A; assay: cell-based or functional assay
recombinant human TL1A [2] = molecular target: T1, recombinant human TL1A; assay: competition ELISA, coated TL1A, competitor bio-TL1A-0002
Protocol: (§1) For this competition ELISA assay procedure, 96-well high binding plates (Corning, product number 3590) were coated with 1 μg/mL recombinant TL1A in 100 μL/well in Phospate Buffered Saline (PBS) overnight at 4° C. Plates were then blocked in PBS+0.02% casein solution and washed with PBS+0.05% Tween-20 following standard ELISA protocol. […] Plates were washed with PBS+0.05% Tween-20 following standard ELISA protocol, and Streptavidin-HRP (Southern Biotech, product number 7100-05) diluted to 1:10,000 in assay buffer was added to plates and incubated for 25-30 minutes at room temperature. Next, the plates were washed with PBS+0.05% Tween-20 following standard ELISA protocol, and then TMB substrate (BioFX Laboratories, catalog number TMBW-0100-01) was added to plates. Reactions were stopped after approximately 5 minutes by adding 0.18 M ortho-phosphoric acid to each well and absorbance was read at 450 nm.

recombinant human TL1A [3] = molecular target: T2, recombinant human TL1A; assay: competition ELISA vs bio-TL1A-0002
Protocol: as §1

Row | TF-1 NF-κB reporter cell bioassay IC50 (recombinant human TL1A [1]) [nM] | TF-1 NF-κB reporter cell bioassay, Bioactivity relative to TL1A-0002 (recombinant human TL1A [1]) [fold] | Whole blood IFNγ assay IC50 (recombinant human TL1A [1]) [nM] | Whole blood IFNγ assay, Bioactivity relative to TL1A-0002 (recombinant human TL1A [1]) [fold] | Bioactivity relative to TL1A-0002 (recombinant human TL1A [2]) [fold] | IC50 (recombinant human TL1A [2]) [nM] | Bioactivity relative to TL1A-0002 (recombinant human TL1A [3]) [fold] | IC50 (recombinant human TL1A [3]) [nM] | Binder
1 | 43.9 | 1.3 | 1.03 | 1.2 | 1.4 | 7.3 | – | – | B1
2 | 40.4 | 1.2 | 0.932 | 1.1 | 1.2 | 6.2 | – | – | B2
3 | 30 | 0.9 | 1.06 | 1.3 | 3.1 | 15.8 | – | – | B3
4 | 45.1 | 1.3 | 1.01 | 1.2 | 1.7 | 8.7 | – | – | B4
5 | 42.2 | 1.2 | 0.94 | 1.1 | 1.3 | 6.8 | – | – | B5
6 | 19.1 | 0.6 | – | – | 2 | 10.1 | – | – | B6
7 | 24.7 | 0.7 | – | – | 1.8 | 9 | – | – | B7
8 | – | – | 0.82 | 1 | 1.8 | 9.1 | – | – | B8
9 | – | – | 0.914 | 1.1 | 1.6 | 8.2 | – | – | B9
10 | – | – | 0.955 | 1.2 | 1.7 | 8.6 | – | – | B10
11 | – | – | 0.993 | 1.2 | 2 | 10.1 | – | – | B11
12 | 96 | 2.8 | – | – | 1.6 | 8 | – | – | B12
13 | – | – | 0.799 | 1 | 1.6 | 7.9 | – | – | B13
14 | 77.9 | 2.2 | 0.95 | 1.1 | 1.9 | 9.6 | – | – | B14
15 | – | – | 0.986 | 1.2 | 1.9 | 9.7 | – | – | B15
16 | 56.5 | 1.6 | 0.942 | 1.1 | 1.6 | 8 | – | – | B16
17 | 49.4 | 1.4 | 1.23 | 1.5 | 3 | 15 | – | – | B17
18 | 43 | 1.2 | 0.81 | 1 | 2.8 | 14.2 | – | – | B18
19 | – | – | 0.929 | 1.1 | 1.8 | 9 | – | – | B19
20 | – | – | – | – | – | – | 0.9 | 3.9 | B20
21 | – | – | – | – | – | – | 1.2 | 5.5 | B21
22 | – | – | – | – | – | – | 0.9 | 4.1 | B22
23 | – | – | – | – | – | – | 1 | 4.5 | B23
24 | – | – | – | – | – | – | 0.8 | 3.8 | B24
25 | – | – | – | – | – | – | 0.9 | 4.2 | B25
